This note sets out measurements from US20210363269A1 (ALX ONCOLOGY, published 2021).

What all share (assay): SPR, Langmuir fit
In general terms: Surface plasmon resonance follows binding to a sensor surface in real time, without labels.

One experiment concerns the target T1, human SIRPγ isoform 1 (human, UniProt Q9P1W8 29-147).
T1 construct: also called SIRPg; sirpg
The method, boiled down: (§1)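 Pre-filtered culture media supplied the scFv-Fc antibody clones, which were captured by anti-human IgG Fc amine-coupled (about 4000 RU) to a GLC chip on a ProteOn XPR36. SIRP analytes were flowed in PBS pH 7.4 with 0.01% Tween-20 at 25° C. Interspot and buffer-blank responses were subtracted from the data, which were then fitted to a 1:1 Langmuir model. Dissociation rate constants (koff) were derived from this fitting.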

Experiment [1] has as its target T2, cynomolgus SIRP-α D1 domain (cyno1) (cynomolgus monkey, UniProt Q5TFQ8 30-148 (human entry), limits assumed).
T2 chain: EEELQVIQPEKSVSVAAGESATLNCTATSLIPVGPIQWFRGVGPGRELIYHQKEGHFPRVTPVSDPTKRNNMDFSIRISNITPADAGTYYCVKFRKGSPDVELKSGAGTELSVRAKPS
Put shortly: as §1

For experiment [2], the target named is T3, human SIRP-α v2 D1 domain (human).
T3 construct: also called human v2
Put shortly:
as §1

For experiment [3], the target named is T4, cynomolgus SIRP-α D1 domain (cyno2) (cynomolgus monkey, UniProt Q5TFQ8 30-148 (human entry), limits assumed).
T4 chain: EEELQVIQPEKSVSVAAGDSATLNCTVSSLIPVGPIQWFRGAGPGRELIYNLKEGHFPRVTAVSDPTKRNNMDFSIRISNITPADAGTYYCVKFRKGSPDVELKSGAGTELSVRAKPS
The method, boiled down:
as §1

The target in experiment [4] is T5, mouse 129 SIRP-α D1 domain (mouse (129 strain), UniProt P97797 32-150).
T5 construct: also called m129
T5 chain: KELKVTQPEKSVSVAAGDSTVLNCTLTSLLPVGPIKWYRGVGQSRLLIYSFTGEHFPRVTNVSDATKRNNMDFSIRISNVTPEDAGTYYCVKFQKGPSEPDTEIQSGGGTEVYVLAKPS
Put shortly: as §1

The target in experiment [5] is T6, human SIRP-α v1 D1 domain (human, UniProt P78324 31-149).
T6 construct: also called human v1
Put shortly:
as §1

Experiment [6] addresses T7, C57BL/6 mouse SIRP-α D1 domain (mouse (C57BL/6 strain), UniProt P97797 32-148).
T7 sequence: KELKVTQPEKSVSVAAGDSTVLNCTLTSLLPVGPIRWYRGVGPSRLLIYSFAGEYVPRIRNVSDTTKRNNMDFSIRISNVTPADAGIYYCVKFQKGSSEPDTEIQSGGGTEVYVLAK
The method, boiled down: as §1

Experiment [7] addresses T8, high affinity SIRP-α D1 variant CV1-3.
T8 chain: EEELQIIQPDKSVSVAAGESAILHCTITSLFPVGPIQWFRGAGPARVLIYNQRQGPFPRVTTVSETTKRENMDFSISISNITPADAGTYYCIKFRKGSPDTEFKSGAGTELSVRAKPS
The method, boiled down: as §1

For another experiment, the target named is T9, human SIRPβ isoform 1 (human, UniProt O00241 30-148).
T9 construct: also called SIRPb; sirpb1
Put shortly:
as §1

Experiment [8] concerns the target T10, NOD mouse SIRP-α D1 domain (mouse (NOD strain)).
T10 chain: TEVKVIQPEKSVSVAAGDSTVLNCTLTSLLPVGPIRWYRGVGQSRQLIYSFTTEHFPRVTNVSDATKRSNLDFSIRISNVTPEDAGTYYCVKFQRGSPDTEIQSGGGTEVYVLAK
Put shortly: as §1

T9 sequence (O00241 30-148 limits assumed): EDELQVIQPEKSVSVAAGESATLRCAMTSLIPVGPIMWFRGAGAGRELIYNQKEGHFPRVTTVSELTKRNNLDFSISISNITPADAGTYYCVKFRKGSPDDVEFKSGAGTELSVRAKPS
T6 sequence (P78324 31-149 limits assumed): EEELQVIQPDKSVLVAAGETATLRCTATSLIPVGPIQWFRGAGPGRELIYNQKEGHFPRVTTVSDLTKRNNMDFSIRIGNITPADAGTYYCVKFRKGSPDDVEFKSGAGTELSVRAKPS
T1 sequence (Q9P1W8 29-147 limits assumed): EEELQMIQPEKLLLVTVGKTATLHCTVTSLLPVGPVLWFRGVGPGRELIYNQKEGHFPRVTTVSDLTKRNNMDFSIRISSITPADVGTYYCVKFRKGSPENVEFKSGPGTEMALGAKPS

B1: S29 (scFv, V domains shown)
VH: DVQLVESGGGVVRPGESLRLSCAVSGFRFSSYAMSWVRQAPGKGLEWVSGISSDSDAYYVDSVKGRFTISRDNSKNTLYLQVNSLTAEDTAVYYCARETWNHLFDYWGLGTMVTVSS
VL: ALTQPASVSANLGETVKITCSGGDSSSHYYGWFQQKSPGSAPVTLIYSDDERPSDIPSRFSGSASGSTATLTITGVRVEDEAIYFCGAYDGSTYTNTFGAGTTLTVL
notes: also called clone 29
As to B1, the dissociation rate constant (koff) in the experiment with human SIRPγ isoform 1 was found to be 0.000216 s⁻¹; in experiment [1], 0.000387 s⁻¹; in [2] it was 0.000178 s⁻¹; in experiment [3], 0.000369 s⁻¹; in experiment [4] it was 0.00114 s⁻¹; in [5] it was 9.61e-05 s⁻¹. Besides, the koff amounted to 0.00186 s⁻¹ in [6], 0.000343 s⁻¹ in experiment [7] and 0.000279 s⁻¹ with human SIRPβ isoform 1.

B2: S136 (scFv, V domains shown)
VH: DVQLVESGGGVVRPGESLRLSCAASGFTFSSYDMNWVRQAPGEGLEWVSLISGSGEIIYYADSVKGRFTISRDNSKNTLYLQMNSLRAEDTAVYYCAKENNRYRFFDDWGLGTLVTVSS
VL: ETVLTQSPGTLTLSPGERATLTCRASQSVYTYLAWYQEKPGQAPRLLIYGASSRATGIPDRFSGSGSGTEFTLTISSLQSEDFAVYYCQQYYDRPPLTFGGGTKVEIK
notes: also called scFv-Fc form of AB136
In the case of B2, the koff in experiment [2] is 0.00161 s⁻¹; in [3], 0.00132 s⁻¹; in experiment [4] it was 0.000459 s⁻¹; in experiment [5], 0.000845 s⁻¹; in [6], 0.00478 s⁻¹; in experiment [7], 0.00159 s⁻¹. Moreover, the koff stood at 0.000386 s⁻¹ in experiment [8] and 0.0036 s⁻¹ with human SIRPβ isoform 1.

B3: S189 (scFv, V domains shown)
VH: DVQLVESGGGVVRPGESLRLSCAASGFTFSSSDMNWVRQAPGEGLEWVSLISGSGEITYYADSVKGRFTISRDNSKNTLYLQMNSLRAEDTAIYYCAKENNMYRFFDYWGLGTLVTVSS
VL: ETVLTQSPGTLSLSPGERATLSCRASQSVYTYLAWYQQKPGQPPRLLIHAARNRAAGIPDRFSGSGSGTEFTLTISSLQSEDFAVYYCQQYYDRPPLTFGGGTKVEIK
Turning to B3, the koff came to 0.00331 s⁻¹ in experiment [1]; 0.00281 s⁻¹ in experiment [2]; 0.00187 s⁻¹ in experiment [3]; 0.000837 s⁻¹ in experiment [4]; 0.00106 s⁻¹ in [5]; 0.0039 s⁻¹ in experiment [6]. Also, the values for the koff (in experiment [7]; in [8]; in the experiment with human SIRPβ isoform 1) were 0.00228 s⁻¹, 0.000504 s⁻¹ and 0.00278 s⁻¹, respectively.

B4: S178 (scFv, V domains shown)
VH: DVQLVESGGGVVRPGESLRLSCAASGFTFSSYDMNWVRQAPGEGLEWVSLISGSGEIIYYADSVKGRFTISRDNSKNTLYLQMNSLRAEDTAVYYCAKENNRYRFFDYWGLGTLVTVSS
VL: ETVLTQSPGTLTLSPGERATLSCRASQSVYTYLAWYQEKPGQAPRLLIYGASSRATGVPDRFSGSGSGTEFTLTISSLQSEDFAVYYCQQYYDRPPLTFGGGTKVEIK
Turning to B4, the koff stood at 0.00344 s⁻¹ in [1]; 0.00317 s⁻¹ in experiment [2]; 0.00177 s⁻¹ in [3]; 0.00112 s⁻¹ in [4]; 0.00223 s⁻¹ in experiment [5]; 0.00426 s⁻¹ in experiment [7]. Besides, the values for the dissociation rate constant (koff) (in experiment [8]; in the experiment with human SIRPβ isoform 1) were 0.000762 s⁻¹ and 0.00473 s⁻¹, respectively.

B5: S184 (scFv, V domains shown)
VH: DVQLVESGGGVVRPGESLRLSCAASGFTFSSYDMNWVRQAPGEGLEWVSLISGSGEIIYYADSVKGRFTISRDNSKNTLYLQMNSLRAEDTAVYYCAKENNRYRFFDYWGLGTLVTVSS
VL: ETVLTQSPGTLSLSPGERATLNCRASQSVYTYLAWYQEKPGQAPRLLIYDASSRATGIPDRFSGSGSGTEFTLTISSLESEDFAVYYCQQYYDRPPLTFGGGTKVEIK
As to B5, the koff in experiment [1] came to 0.0039 s⁻¹; in experiment [3], 0.00221 s⁻¹; in [4], 0.000821 s⁻¹; in experiment [6], 0.00422 s⁻¹; in [7], 0.00514 s⁻¹; in experiment [8], 0.000638 s⁻¹.

B6: S177 (scFv, V domains shown)
VH: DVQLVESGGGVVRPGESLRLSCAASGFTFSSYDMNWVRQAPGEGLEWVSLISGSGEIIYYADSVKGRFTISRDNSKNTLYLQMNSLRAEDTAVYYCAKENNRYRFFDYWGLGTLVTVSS
VL: KTVLTQSPGTLSLSPGERATLTCRADQSVYTYLAWYQERPGQAPRLLIYDASSRATGIPDRFSGSGSGTEFTLTISSLQSEDFAVYYCQQYYDRPPLTFGGGTKVEIK
Turning to B6, the koff was found to be 0.00447 s⁻¹ in experiment [1], 0.00269 s⁻¹ in [3], 0.00104 s⁻¹ in experiment [4] and 0.000736 s⁻¹ in experiment [8].

B7: S185 (scFv, V domains shown)
VH: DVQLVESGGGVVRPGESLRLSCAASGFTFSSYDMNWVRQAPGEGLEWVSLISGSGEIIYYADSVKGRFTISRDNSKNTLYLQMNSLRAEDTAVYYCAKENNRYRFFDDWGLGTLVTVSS
VL: ETVLTQSPGTLSLSPGERATLNCRASQSVYSYLAWYQERPGQAPRLLIYGASTRATGIPDRFSGSGSGTEFTLTISSLESDDFAVYYCQQYYDRPPLTFGGGTKVEIK
B7: the koff in experiment [1] was determined as 0.00178 s⁻¹; in experiment [2] it was 0.00205 s⁻¹; in experiment [3], 0.00103 s⁻¹; in [4], 0.000717 s⁻¹; in experiment [5] it was 0.00122 s⁻¹; in experiment [6], 0.00514 s⁻¹. Further, the koff is 0.00239 s⁻¹ in experiment [7], 0.000573 s⁻¹ in experiment [8] and 0.00385 s⁻¹ with human SIRPβ isoform 1.

B8: S175 (scFv, V domains shown)
VH: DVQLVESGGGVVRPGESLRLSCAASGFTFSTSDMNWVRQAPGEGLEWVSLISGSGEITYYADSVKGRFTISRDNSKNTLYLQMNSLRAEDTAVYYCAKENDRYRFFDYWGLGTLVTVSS
VL: ETVLTQSPGILSLSPGERATLTCRASQSVYTYLAWYQEKPGQAPRLLIYGASSRAAGIPDRFSGSGSGTEFTLTISSLQSEDFAVYYCQQYYDRPPLTFGGGTKVEIK
For B8, the koff in experiment [1] amounted to 0.00177 s⁻¹; in experiment [2], 0.00183 s⁻¹; in experiment [3], 0.00107 s⁻¹; in [4], 0.000605 s⁻¹; in [5], 0.000839 s⁻¹; in experiment [6], 0.0032 s⁻¹. In addition, the koff in experiment [7] stood at 0.00165 s⁻¹; in [8] it was 0.000417 s⁻¹; with human SIRPβ isoform 1, 0.00299 s⁻¹.

B9: S180 (scFv, V domains shown)
VH: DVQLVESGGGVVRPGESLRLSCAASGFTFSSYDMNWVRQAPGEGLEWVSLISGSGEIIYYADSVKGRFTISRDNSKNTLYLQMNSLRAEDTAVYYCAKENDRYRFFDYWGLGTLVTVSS
VL: ETVLTQSPGTLTLSPGERATLTCRASQSVYTYLAWYQEKPGQAPRLLIYGASSRATGIPDRFSGSGSGTEFTLTISSLQSEDFAVYYCQQYYDRPPLTFGGGTKVEIK
notes: also called clone 180
Turning to B9, the koff in experiment [1] amounted to 0.0025 s⁻¹; in [2], 0.00227 s⁻¹; in [3], 0.00138 s⁻¹; in experiment [4], 0.000806 s⁻¹; in experiment [5], 0.0016 s⁻¹; in experiment [6], 0.00466 s⁻¹. For the same molecule, the results for the off-rate constant (koff) (in [7]; in experiment [8]; in the experiment with human SIRPβ isoform 1) were 0.00307 s⁻¹, 0.000576 s⁻¹ and 0.00375 s⁻¹, respectively.

B10: S190 (scFv, V domains shown)
VH: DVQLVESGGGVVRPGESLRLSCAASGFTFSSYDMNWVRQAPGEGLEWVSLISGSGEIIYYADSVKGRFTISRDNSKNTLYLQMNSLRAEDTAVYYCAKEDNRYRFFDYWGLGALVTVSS
VL: ETVLTQSPGTLTLSPGERTTLTCRASQSVYTYLAWYQEKPGQAPRLLIYGASSRATGIPDRFSGSGSGTEFTLTISSLQSEDFAVYYCQQYYDRPPLTFGGGTKVEIK
notes: also called clone 190
Consider B10, for which the koff is 0.00217 s⁻¹ in experiment [1]; 0.00199 s⁻¹ in experiment [2]; 0.00124 s⁻¹ in experiment [3]; 0.000773 s⁻¹ in experiment [4]; 0.00156 s⁻¹ in [5]; 0.00308 s⁻¹ in experiment [7]. The off-rate constant (koff) in experiment [8] came to 0.000563 s⁻¹; with human SIRPβ isoform 1, 0.00256 s⁻¹.

B11: S193 (scFv, V domains shown)
VH: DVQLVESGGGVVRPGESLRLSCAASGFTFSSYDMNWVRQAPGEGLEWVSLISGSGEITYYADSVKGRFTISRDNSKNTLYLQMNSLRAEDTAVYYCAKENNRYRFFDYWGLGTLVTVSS
VL: ETVLTQSPGTLSLSPGERATLSCRASQSVYTYLAWYQEKPGQAPRLLIYAASTRATGIPDRFSGSGSGTEFTLTISSLQSEDFAVYYCQQYYDRPPLTFGGGTKVEIK
notes: scFv-Fc format (VL-linker-VH on human IgG1 Fc)
Take B11: the koff in experiment [3] was 0.00428 s⁻¹; in experiment [4] it was 0.00209 s⁻¹; in experiment [6], 0.00389 s⁻¹; in experiment [8], 0.00157 s⁻¹.

B12: S26 (scFv, V domains shown)
VH: DVQLVESGGGVVRPGESLRLSCAASGFTFSTYAMSWVRQAPGKGLEWVSGISASGSGTYYGDSVKGRFTMSRDNSKNTLYLQMNSLTAEDTAVYYCARETWNHLFDYWGLGTLVTVSS
VL: ALTQPASVSANLGGTVEITCSGGSSSYYGWYQQKSPGSAPVTVIYSDNQRPSDIPSRFSGSASDSTATLTITGVQVEDEAIYYCGGYDSSTYANTFGAGTTLTVL
notes: also called clone 26
Take B12: the koff with human SIRPγ isoform 1 came to 8.35e-05 s⁻¹; in [1] it was 0.000967 s⁻¹; in [2], 0.000111 s⁻¹; in experiment [3] it was 0.000743 s⁻¹; in experiment [4] it was 0.00108 s⁻¹; in experiment [5], 5.81e-05 s⁻¹. In addition, the koff was determined as 4.74e-05 s⁻¹ in experiment [7], 0.000764 s⁻¹ in experiment [8] and 0.000129 s⁻¹ with human SIRPβ isoform 1.

By koff is commonly meant the rate constant with which the complex falls apart. A low value points to slow dissociation.
